Measurements taken from patent US20230241185A1, “COMPOSITION COMPRISING A DNA-DEGRADING ENZYME FOR USE IN A METHOD FOR THE TREATMENT OF IMMUNOSUPPRESSION AFTER ACUTE TISSUE INJURY” (Klinikum der Universität München, priority 2020, published 2023).
“Also recorded” adds a separate entry of the source.

Tests used:
[1] = tested on: splenic CD3^+ T cells; experiment: Splenic T cell counts by FACS after experimental stroke; assay type: in vivo, mice; conditions: hrDNase 1000 U 1 hour after surgery vs vehicle; experimental stroke; normalized to sham
Description: (§1) Mice were anaesthetized with isoflurane delivered in a mixture of 30% O2 and 70% N2O. An incision was made between the ear and the eye in order to expose the temporal bone. Mice were placed in supine position, and a laser Doppler probe was affixed to the skull above the middle cerebral artery (MCA) territory. The common carotid artery and left external carotid artery were exposed via midline incision and further isolated and ligated. A 2-mm silicon-coated filament (Doccol) was inserted into the internal carotid artery, advanced gently to the MCA until resistance was felt, and occlusion was confirmed by a corresponding decrease in blood flow (i.e., a decrease in the laser Doppler flow signal by 80%. After 60 minutes of occlusion, the animals were re-anesthetized, and the filament was removed. After recovery, the mice were kept in their home cage with ad libitum access to water and food. Sham-operated mice received the same surgical procedure, but the filament was […] in lieu of being advanced to the MCA. Body temperature was maintained at 37° C. throughout surgery in all mice via feedback-controlled heating pad. The overall mortality rate of animals subjected to MCA occlusion was approximately 20%. All animals in the sham group survived the procedure. Exclusion criteria: 1. Insufficient MCA occlusion (a reduction in blood flow to […] of the baseline value). 2. Death during the surgery. 3. Lack of brain ischemia as quantified post-mortem by histological analysis.
Anti-IL1β: Mice received two injections of antagonizing anti-IL-1β in sterile saline (clone: B122, InVivoMab, BioXcell, US), 1 hour prior to and 1 hour after surgery. Anti-IL-1β or the corresponding IgG control (Armenian hamster IgG, InVivoMab, BioXcell, US) was injected i.p. at a dose of 4 mg kg^−1 body weight in a final volume of 200 μl.
Anti-FasL: Mice received two injections of antagonizing anti-FasL in sterile saline (clone: MFL3, InVivoMab, BioXcell, US), 1 hour prior to and 1 hour after surgery. […]

[2] = tested on: splenic B cells; experiment: Splenic B cell counts by FACS after experimental stroke; assay type: in vivo, mice; conditions: hrDNase 1000 U vs control; 18 h after stroke; normalized to sham
Description: (§2) Mice were anaesthetized with isoflurane delivered in a mixture of 30% O2 and 70% N2O. An incision was made between the ear and the eye in order to expose the temporal bone. Mice were placed in supine position, and a laser Doppler probe was affixed to the skull above the middle cerebral artery (MCA) territory. The common carotid artery and left external carotid artery were exposed via midline incision and further isolated and ligated. […] Lack of brain ischemia as quantified post-mortem by histological analysis. […]
(§3) The anti-mouse antibodies listed below (see Table 1) were used for surface marker staining of CD45^+ leukocytes, CD45^+CD11b^+ monocytes (+FasL^+ expression), CD3^+ T cells, CD3^+CD4^+ Thelper cells, CD3^+CD8^+ Tcytotox cells and CD19^+ B cells (for representative gating strategy, see FIG. 10A). […] Flow cytometric data was acquired using a BD FACSverse flow cytometer (BD Biosciences) and analyzed using FlowJo software (Treestar).

[3] = tested on: caspase-1 activity in splenic CD11b^+ monocytes; experiment: FAM FLICA flow cytometry of caspase-1 activity (inflammasome activation) in splenic monocytes after stroke; assay type: in vivo, mice; conditions: hrDNase 1000 U 1 hour after surgery vs vehicle; experimental stroke; splenic monocytes
Description: as §1
Human recombinant DNase (hrDNase): 1000 U of human recombinant DNase (Roche, Switzerland) dissolved in incubation 1× buffer (40 mM Tris-HCl, 10 mM NaCl, 6 mM MgCl2, 1 mM CaCl2, pH 7.9, diluted in PBS, Roche) was injected i.v. in the tail vein 1 hour after surgery in a final volume of 100 μl. The control group was administered vehicle injections at the same volume, route, and timing as experimental animals.
Caspase-8 inhibitor (Z-IETD-FMK) & Caspase-9 inhibitor (Z-LEHD-FMK): The apoptosis inhibitors Z-IETD-FMK and Z-LEHD-FMK (R&D systems, US) in DMSO dissolved in PBS and injected i.p. 30 minutes after surgery. Z-LEHD-FMK was injected at a dose of […] body weight at a final volume of 200 μl. Z-IETD-FMK was injected at a dose of 0.8 mg kg^−1 body weight at a final volume of 100 μl. The control groups were administered vehicle injections at the same volume, route, and timing as experimental animals.
To detect the active forms of caspase-1 in blood, spleen, and bone marrow samples, cell suspensions were stained with the fluorescent inhibitor probe FAM-YVAD-FMK (FAM FLICA, BioRad, Germany) for 30 minutes at 37° C. according to the manufacturer's instructions. After washing, the cells were stained for CD45^+CD3^+ T cells and CD45^+Cd11b^+ monocytes. The flow cytometry data was acquired on a BD FACSVerse (for representative gating strategy, see FIG. 10B).

[4] = tested on: cf-dsDNA; experiment: Cell-free dsDNA quantification in serum/plasma after stroke; assay type: in vivo, mice; conditions: hrDNase 1000 U vs vehicle, 6 h after stroke or sham surgery
Description: as §2
Cell-free nucleic acids (RNA, single strand (ss) DNA and double strand (ds) DNA) levels in the plasma of mice and human patients was assessed with a Qubit 2.0 fluorometer (Invitrogen) using specific fluorescent dyes which bind either ssDNA (ssDNA Assay Kit, Thermo Fisher Scientific) or dsDNA (HS dsDNA Assay kit, Thermo Fisher Scientific). […]

[5] = tested on: FasL on CD11b^+ monocytes; experiment: FasL expression on splenic CD11b+ monocytes by FACS after stroke; assay type: in vivo, mice; conditions: hrDNase 1000 U after stroke vs control
Description: as §2, §3

[6] = tested on: FasL on BMDMs; experiment: BMDMs stimulated with post-stroke serum (±hrDNase), FasL expression by FACS; assay type: cell-based, mice; conditions: BMDMs stimulated 10 minutes with post-stroke serum ±hrDNase; FasL 10 and 60 minutes after
Description: Control-treated BMDMs received only FBS-containing culture media. […] Stimulation by secreted factors (left), and 2. Cell-cell contact (right).

[7] = tested on: IL-1β; experiment: IL-1β concentration in post-stroke serum treated ex vivo ±hrDNase; design: species or system mice; conditions: ex vivo treatment of post-stroke mouse serum ±hrDNase
Experimental: Total IL-1β and caspase-1 levels from patient plasma samples (diluted 1:10 in sterile PBS) were obtained using commercial assay kits according to the manufacturers instructions (Quantikine ELISA human IL-1β, Quantikine ELISA human caspase-1 R&D systems). Total IL-1β and IL-18 levels from murine plasma samples were measured using the Duoset ELISA IL-1β and the Duoset ELISA IL-18 kit according to the manufacturer's instructions (R&D systems).

B1: hrDNase: Human recombinant DNase (Roche, Switzerland), DNA-degrading enzyme (protein, UniProt P24855 23-282, looked up)
Deoxyribonuclease-1: LKIAAFNIQTFGETKMSNATLVSYIVQILSRYDIALVQEVRDSHLTAVGKLLDNLNQDAPDTYHYVVSEPLGRNSYKERYLFVYRPDQVSAVDSYYYDDGCEPCGNDTFNREPAIVRFFSRFTEVREFAIVPLHAAPGDAVAEIDALYDVYLDVQEKWGLEDVMLMGDFNAGCSYVRPSQWSSIRLWTSPTFQWLIPDSADTTATPTHCAYDRIVVAGMLLRGAVVPDSALPFNFQAAYGLSDQLAQAISDHYPVEVMLK
- splenic T cell counts / T cell survival [1]: improved T cell survival after experimental stroke; also recorded: increased splenic T cell counts
- splenic B cell survival [2]: improved B cell survival after experimental stroke
- monocyte inflammasome activation (caspase-1 probe FAM-FLICA) [3]: substantially reduced inflammasome activation in splenic monocytes; also recorded: decrease cf-dsDNA concentration in plasma and inflammasome activation in monocytes; also recorded: significantly reduced monocyte inflammasome activation
- serum dsDNA (cf-dsDNA) concentration [4]: reduction of cf-dsDNA blood concentrations; also recorded: decrease cf-dsDNA concentration in plasma; also recorded: decrease of serum dsDNA concentration in mice receiving hrDNase treatment after stroke to levels of sham-operated mice
- serum dsDNA (cf-dsDNA) concentration ([4]; listed as human recombinant DNAse): efficient degradation of cf-dsDNA
- FasL expression on monocytes / FasL+ myeloid cell population [5]: prevented the expansion of FasL+myeloid cell population; also recorded: reduced FasL expression on monocytes
- FasL upregulation on serum-stimulated monocytes (BMDMs) [6]: completely prevented the FasL upregulation on serum-stimulated monocytes
- IL-1β concentration of post-stroke serum [7]: IL-1β concentrations did not differ between the two stroke serum groups
- IL-1β concentration of post-stroke serum ([7]; listed as hrDNAse): did not affect the serum concentration of IL-1β
